In assay [1] the target is human hair (hair keratin) (human). Nature of the assay: quantitative hair binding test, anti-polyHis peroxidase conjugate, TMB.
Assay [2] shares this target. Put plainly: quantitative hair binding test, after 10% strength SDS treatment.
Assay [3] deals with human skin (skin keratin) (human). Put plainly: quantitative skin binding test on human keratinocytes in microtiter plates, anti-His antibody, TMB.
The target is the same in assay [4]. Put plainly: quantitative skin binding test on human keratinocytes, after 10% strength SDS treatment.

B1: KBD-D (keratin-binding domain of human plakophilin, SEQ ID No.: 168) (protein)
chain: MRGSHHHHHHGSACELGTMNHSPLKTALAYECFQDQDNSTLALPSDQKMKTGTSGRQRVQEQVMMTVKRQKSKSSQSSTLSHSNRGSMYDGLADNYNYGTTSRSSYYSKFQAGNGSWGYPIYNGTLKREPDNRRFSSYSQMENWSRHYPRGSCNTTGAGSDICFMQKIKASRSEPDLYCDPRGTLRKGTLGSKGQKTTQNRYSFYSTCSGQKAIKKCPVRPPSCASKQDPVYIPPISCNKDLSFGHSRASSKICSEDIECSGLTIPKAVQYLSSQDEKYQAIGAYYIQHTCFQDESAKQQVYQLGGICKLVDLLRSPNQNVQQAAAGALRNLVFRSTTNKLETRRQNGIREAVSLLRRTGNAEIQKQLTGLLWNLSSTDELKEELIADALPVLADRVIIPFSGWCDGNSNMSREVVDPEVFFNATGCLRNLSSADAGRQTMRNYSGLIDSLMAYVQNCVAASRCDDKSVENCMCVLHNLSYRLDAEVPTRYRQLEYNARNAYTEKSSTGCFSNKSDKMMNNNYDCPLPEEETNPKGSGWLYHSDAIRTYLNLMGKSKKDATLEACAGALQNLTASKGLMSSGMSQLIGLKEKGLPQIARLLQSGNSDVVRSGASLLSNMSRHPLLHRVMGNQVFPEVTRLLTSHTGNTSNSEDILSSACYTVRNLMASQPQLAKQYFSSSMLNNIINLCRSSASPKAAEAARLLLSDMWSSKELQGVLRQQGFDRNMLGTLAGANSLRNFTSRF
For the molecule B1, the Absorption at 405 nm (A405 nm (standardized to the surface)) in assay [1] is 0.88; in assay [2] it was 0.62; in assay [3], 3.69; in assay [4] it was 3.15.

B2: KBD-B (keratin-binding domain B of human desmoplakin, SEQ ID No.: 166) (protein)
chain: MRGSHHHHHHGSACELEPHTGLLLLSVQKRSMSFQGIRQPVTVTELVDSGILRPSTVNELESGQISYDEVGERIKDFLQGSSCIAGIYNETTKQKLGIYEAMKIGLVRPGTALELLEAQAATGFIVDPVSNLRLPVEEAYKRGLVGIEFKEKLLSAERAVTGYNDPETGNIISLFQAMNKELIEKGHGIRLLEAQIATGGIIDPKESHRLPVDIAYKRGYFNEELSEILSDPSDDTKGFFDPNTEENLTYLQLKERCIKDEETGLCLLPLKEKKKQVQTSQKNTLRKRRVVIVDPETNKEMSVQEGVDLQPSLIS
For B2, the figures for the Absorption at 405 nm (A405 nm (standardized to the surface)) in assay [3] and in assay [4] were 0.93 and 0.185, respectively.

The record behind these values is US20090156485A1.
